Laboratory results reported in patent publication US20200002436A1 (DRAGONFLY THERAPEUTICS, published 2020).

Assays:
Assay in all cases: ELISA on coated NKG2D-Fc;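 also: titrated NKG2D binders added to plates coated with human, mouse or cynomolgus NKG2D ectodomain–human IgG1 Fc fusions, detected by HRP anti-human kappa antibody with TMB, absorbance at 450 nm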
[1] = target: T1, mouse recombinant NKG2D-Fc (mouse; human, UniProt O54709 90-232)
T1 construct: extracellular domain; also called recombinant mouse NKG2D-Fc; Mouse NKG2D-Fc-biotin; not shown: human IgG1 Fc domain
T1 sequence (looked up): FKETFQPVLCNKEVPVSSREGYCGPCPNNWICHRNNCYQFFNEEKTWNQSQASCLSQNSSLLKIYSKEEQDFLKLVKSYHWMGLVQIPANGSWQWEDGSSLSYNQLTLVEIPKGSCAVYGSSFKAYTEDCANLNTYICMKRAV

[2] = target: T2, cynomolgus recombinant NKG2D-Fc (cynomolgus; human, UniProt P61252 73-216)
T2 construct: extracellular domain; also called cynomolgus NKG2D-Fc; not shown: human IgG1 Fc domain
T2 sequence (looked up): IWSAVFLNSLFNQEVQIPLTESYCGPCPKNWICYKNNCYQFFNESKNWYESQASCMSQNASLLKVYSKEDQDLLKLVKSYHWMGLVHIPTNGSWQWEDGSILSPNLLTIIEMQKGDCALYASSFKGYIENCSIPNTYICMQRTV

[3] = target: T3, human recombinant NKG2D-Fc (human, UniProt P26718 73-216)
T3 construct: extracellular domain; also called recombinant human NKG2D-Fc; NKG2D-Fc fusion protein; not shown: human IgG1 Fc domain
T3 sequence (looked up): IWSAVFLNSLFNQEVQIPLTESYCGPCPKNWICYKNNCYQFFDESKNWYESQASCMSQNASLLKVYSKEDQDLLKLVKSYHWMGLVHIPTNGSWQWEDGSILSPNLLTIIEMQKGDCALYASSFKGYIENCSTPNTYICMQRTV

Measured: binding result

B1: ADI-29426 (antibody, V domains shown)
VH: QVQLQQWGAGLLKPSETLSLTCAVYGGSFSGYYWSWIRQPPGKGLEWIGEIDHSGSTNYNPSLKSRVTISVDTSKNQFSLKLSSVTAADTAVYYCARARGPWSFDPWGQGTLVTVSS
VL: DIQMTQSPSTLSASVGDRVTITCRASQSIGSWLAWYQQKPGKAPKLLIYKASSLESGVPSRFSGSGSGTEFTLTISSLQPDDFATYYCQQYHSFPTFGGGTKVEIK
binds: all assays above

B2: ADI-27724 (antibody, V domains shown)
VH: QVQLQQWGAGLLKPSETLSLTCAVYGGSFSGYYWSWIRQPPGKGLEWIGEIDHSGSTNYNPSLKSRVTISVDTSKNQFSLKLSSVTAADTAVYYCARARGPWSFDPWGQGTLVTVSS
VL: not shown
binds: all assays above

B3: ADI-29447 (antibody, V domains shown)
VH: QVQLQQWGAGLLKPSETLSLTCAVYGGSFSGYYWSWIRQPPGKGLEWIGEIDHSGSTNYNPSLKSRVTISVDTSKNQFSLKLSSVTAADTAVYYCARARGPWSFDPWGQGTLVTVSS
VL: DIQMTQSPSTLSASVGDRVTITCRASQSISSWLAWYQQKPGKAPKLLIYKASSLESGVPSRFSGSGSGTEFTLTISSLQPDDFATYYCQQYDTFITFGGGTKVEIK
notes: also called F47
binds: all assays above
